Experiments:
[1] = biological target: NF-κB p65 (RelA) homodimer (UniProt Q04206); details: 1:1 stoichiometry; method not stated; cited from earlier work
NF-κB p50 homodimer = NF-κB p50 homodimer (UniProt P19838); details: SELDI also detects p50 on IgκB surface; lost on stringent washing unlike XBY-6
Chain of NF-κB p50 homodimer (P19838 1-433): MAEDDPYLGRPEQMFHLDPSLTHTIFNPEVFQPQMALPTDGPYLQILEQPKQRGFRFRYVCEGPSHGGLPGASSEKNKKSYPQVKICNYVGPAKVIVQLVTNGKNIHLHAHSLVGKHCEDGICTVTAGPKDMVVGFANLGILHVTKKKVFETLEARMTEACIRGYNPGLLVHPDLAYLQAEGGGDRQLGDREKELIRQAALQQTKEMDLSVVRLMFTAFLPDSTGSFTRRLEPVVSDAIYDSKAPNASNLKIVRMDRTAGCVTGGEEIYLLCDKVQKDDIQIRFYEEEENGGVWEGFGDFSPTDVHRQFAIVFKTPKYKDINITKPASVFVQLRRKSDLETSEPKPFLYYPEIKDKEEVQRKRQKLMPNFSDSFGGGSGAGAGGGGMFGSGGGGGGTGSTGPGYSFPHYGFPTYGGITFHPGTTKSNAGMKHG

Chain of NF-κB p65 (RelA) homodimer (Q04206 whole entry): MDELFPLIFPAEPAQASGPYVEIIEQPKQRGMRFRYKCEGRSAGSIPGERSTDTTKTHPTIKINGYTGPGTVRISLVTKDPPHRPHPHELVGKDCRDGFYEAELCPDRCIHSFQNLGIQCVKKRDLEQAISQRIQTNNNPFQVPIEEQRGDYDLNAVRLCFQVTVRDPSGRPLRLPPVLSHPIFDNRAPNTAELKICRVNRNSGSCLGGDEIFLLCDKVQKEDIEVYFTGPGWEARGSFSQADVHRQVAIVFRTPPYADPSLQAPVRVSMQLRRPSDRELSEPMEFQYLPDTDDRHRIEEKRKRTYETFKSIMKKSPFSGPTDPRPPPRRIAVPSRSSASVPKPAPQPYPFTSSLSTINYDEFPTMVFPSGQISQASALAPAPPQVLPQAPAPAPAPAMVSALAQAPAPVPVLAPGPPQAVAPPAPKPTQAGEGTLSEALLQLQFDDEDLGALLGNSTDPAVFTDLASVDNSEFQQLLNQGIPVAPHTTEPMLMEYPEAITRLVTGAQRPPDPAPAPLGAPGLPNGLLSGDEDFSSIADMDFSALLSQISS

Substance: IgκB 22-mer duplex
- Kd [1]: 4 nM
- Kd (NF-κB p50 homodimer): 4 nM

From patent publication US20050118611
